The text below walks through data of US20140178935A1 (AVEO PHARMACEUTICALS, published 2014).

The Kd is the constant that tells how readily two partners part at equilibrium. In general, koff refers to the first-order rate constant of dissociation. Broadly, the kon is the rate constant with which the complex forms. One may read the IC50 as the concentration at which inhibition is half-maximal.

Where a chain is given by its changes, count along the chain named.

The labels stand for the following.
B1: sh2B8-9 (G1m(3)) = hu2B8 Hv5-51.1 + IgG1 constant region (G1m(3) allotype, allele 2) plus hu2B8 Kv1-39.1 + Kappa constant region (Km(3) allotype, allele 2) (antibody)
heavy: not shown
light: DIQMTQSPSSLSASVGDRVTITCKASENVVSYVSWYQQKPGKAPKLLIYGASNRNTGVPSRFSGSGSGTDFTLTISSLQPEDFATYYCGQSYNYPYTFGQGTKLEIKRTVAAPSVFIFPPSDEQLKSGTASVVCLLNNFYPREAKVQWKVDNALQSGNSQESVTEQDSKDSTYSLSSTLTLSKADYEKHKVYACEVTHQGLSSPVTKSFNRGEC
notes: Superhumanized 2B8 variant, human IgG1 kappa, made in 293T cells
B2: HE2B8-1 (LR2B8HC + IgG1 constant region G1m(3) allotype allele 1, plus LR2B8LC + Kappa constant region Km(3) allotype allele 1) (antibody, V domains shown)
VH: QVQLVQPGAEVVKPGTSVKLSCKASGYTFTTYWMHWVNQAPGQGLEWIGEINPTNGHTNYNEKFKGKATLTVDKSTSTAYMELSSLRSEDTAVYYCARNYVGSIFDYWGQGTLLTVSS
VL: DIVMTQSPDSMAMSVGERVTLNCKASENVVSYVSWYQQKPGQSPKLLIYGASNRNTGVPDRFSGSGSATDFTLTISSVQAEDVADYHCGQSYNYPYTFGQGTKLEIKR
notes: Human Engineered 2B8 variant, human IgG1 kappa, made in HEK293E cells
B3: HE2B8-3 (LRMR2B8HC + IgG1 constant region G1m(3) allotype allele 1, plus LR2B8LC + Kappa constant region Km(3) allotype allele 1) (antibody, V domains shown)
VH: B2 VH with V12K, N38R, E62Q, K65Q, K67R
VL: B2 VL
notes: as for B2
B4: HE2B8-2 (LR2B8HC + IgG1 constant region G1m(3) allotype allele 1, plus LRMR2B8LC + Kappa constant region Km(3) allotype allele 1) (antibody, V domains shown)
VH: B2 VH
VL: B2 VL with M11L, V15L, N55E, T56S
notes: as for B2

T1 sequence (P14210 32-728 limits assumed): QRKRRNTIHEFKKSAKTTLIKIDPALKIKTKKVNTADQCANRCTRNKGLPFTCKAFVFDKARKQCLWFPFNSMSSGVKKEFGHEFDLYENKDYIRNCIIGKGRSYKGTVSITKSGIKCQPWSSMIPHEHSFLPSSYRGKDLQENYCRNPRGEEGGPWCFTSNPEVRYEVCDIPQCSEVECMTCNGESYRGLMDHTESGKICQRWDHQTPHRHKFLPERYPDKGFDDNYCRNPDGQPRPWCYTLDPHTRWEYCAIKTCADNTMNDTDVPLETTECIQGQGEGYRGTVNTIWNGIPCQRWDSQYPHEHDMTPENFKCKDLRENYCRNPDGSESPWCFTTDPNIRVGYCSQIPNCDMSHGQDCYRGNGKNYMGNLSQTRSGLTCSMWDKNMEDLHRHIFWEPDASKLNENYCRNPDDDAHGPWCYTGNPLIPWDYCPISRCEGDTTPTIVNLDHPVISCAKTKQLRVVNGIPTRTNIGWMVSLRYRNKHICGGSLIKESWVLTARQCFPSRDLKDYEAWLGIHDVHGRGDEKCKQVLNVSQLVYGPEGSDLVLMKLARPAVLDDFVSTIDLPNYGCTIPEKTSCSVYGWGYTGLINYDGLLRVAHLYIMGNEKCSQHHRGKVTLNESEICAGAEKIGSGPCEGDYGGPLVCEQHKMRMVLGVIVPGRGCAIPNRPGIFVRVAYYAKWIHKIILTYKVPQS

One experiment addresses T1, recombinant human HGF (R&D Systems, Catalog No. 294-HGN-025) (human, UniProt P14210 32-728). As to the kind of experiment: cell-based or functional assay.
For B1, the “IC50, neutralization of HGF stimulated BrdU incorporation in 4 MBr-5 cells” value (from here on “IC50, neutralization”) is 0.52 nM.
On to B2, for which the “IC50, neutralization” value is 0.47 nM.
B3: the “IC50, neutralization” value turned out to be 0.55 nM.
Regarding B4, the “IC50, neutralization” value came out at 0.66 nM.

The next experiment deals with T1, recombinant human HGF (R&D Systems, …). Description: SPR, captured antibody, HGF injected, 37 C. The procedure:
Mouse anti-human immunoglobulins (Jackson Labs, Catalog No. 209-005) or rabbit anti-mouse immunoglobulins (BIAcore, Catalog No. BR-1005-14) were immobilized on carboxymethylated dextran CM4 sensor chips (BIAcore, Catalog No. BR-1006-68) by amine coupling (BIAcore, Catalog No. BR-1000-50) using a standard coupling protocol according to manufacturer's instructions. […] The analyses were performed at 25° C. and 37° C. using PBS (GIBCO, Catalog No. 14040-133) containing 0.05% surfactant P20 (BIAcore, Catalog No. BR-1000-54), and 2 mg/mL BSA (EMD, Catalog No. 2930) as running buffer.
The antibodies were captured in an individual flow cell at a flow rate of […]. Injection time was variable for each antibody to yield approximately 20 RU of antibody captured for each cycle. […] The dissociation phase was monitored for 15 or 90 minutes, depending on concentration. The surface of mouse anti-human immunoglobulins sensor chips was then regenerated with 10 mM Glycine-HCl, pH 2.2 (BIAcore, Catalog No. BR-1003-54) injected for 3 minutes at a flow rate of 60 μL/min before another cycle was initiated. The surface of rabbit anti-mouse immunoglobulins sensor chips was regenerated with 10 mM Glycine-HCl, pH 1.7 (BIAcore, Catalog No. BR-1003-54) injected for 3 minutes at a flow rate of 60 μL/min before another cycle was initiated.
Kinetic parameters were determined using the kinetic function of the BIAevaluation software with reference subtraction.
For orientation: SPR reads the build-up and loss of mass on a sensor chip optically.
Take B1: the equilibrium dissociation constant (Kd) came to 0.0058 nM, the koff worked out at 1.4e-05 s⁻¹ and the kon is 2.5e+06 M⁻¹ s⁻¹.

The next experiment has the same target. Description: SPR, captured antibody, HGF injected, 25 C. As to the method: Mouse anti-human immunoglobulins (Jackson Labs, Catalog No. 209-005) were immobilized on carboxymethylated dextran CM4 sensor chips (BIAcore, Catalog No. BR-1006-68) by amine coupling (BIAcore, Catalog No. BR-1000-50) using a standard coupling protocol according to manufacturer's instructions. The analyses were performed at 25° C. using PBS (GIBCO, Catalog No. 14040-133) containing 0.05% surfactant P20 (BIAcore, Catalog No. BR-1000-54), and 2 mg/mL BSA (EMD, Catalog No. 2930).
The antibodies were captured in an individual flow cell at a flow rate of 10 μL/min. Injection time was variable for each antibody to yield approximately 20 RU of antibody captured for each cycle. […] The dissociation phase was monitored for 15 or 90 minutes, depending on concentration. The surface then was regenerated with 10 mM Glycine-HCl, pH 2.2 (BIAcore, Catalog No. BR-1003-54) injected for 3 minutes at a flow rate of 60 μL/min before another cycle was initiated.
Kinetic parameters were determined using the kinetic function of the BIAevalutation™ software with reference subtraction.
Consider B2, for which the Kd is 0.0071 nM, the koff was found to be 1.4e-05 s⁻¹ and the kon was 2.2e+06 M⁻¹ s⁻¹.
The matching figures for B3: 0.002 nM, 4.1e-06 s⁻¹ and 2e+06 M⁻¹ s⁻¹.
In the case of B4, the Kd was 0.0052 nM, the koff came out at 9.6e-06 s⁻¹ and the on-rate constant (kon) came out at 1.8e+06 M⁻¹ s⁻¹.

In another experiment the target is T2, recombinant mhm chimeric HGF protein containing human W507-L585 HGF sequence disposed within mouse HGF … (mouse-human-mouse chimera, UniProt Q08048 56-728).
T2 construct: CHO supernatant; also called mhm chimera (W507-L585); MHM chimera (507-585)
T2 chain: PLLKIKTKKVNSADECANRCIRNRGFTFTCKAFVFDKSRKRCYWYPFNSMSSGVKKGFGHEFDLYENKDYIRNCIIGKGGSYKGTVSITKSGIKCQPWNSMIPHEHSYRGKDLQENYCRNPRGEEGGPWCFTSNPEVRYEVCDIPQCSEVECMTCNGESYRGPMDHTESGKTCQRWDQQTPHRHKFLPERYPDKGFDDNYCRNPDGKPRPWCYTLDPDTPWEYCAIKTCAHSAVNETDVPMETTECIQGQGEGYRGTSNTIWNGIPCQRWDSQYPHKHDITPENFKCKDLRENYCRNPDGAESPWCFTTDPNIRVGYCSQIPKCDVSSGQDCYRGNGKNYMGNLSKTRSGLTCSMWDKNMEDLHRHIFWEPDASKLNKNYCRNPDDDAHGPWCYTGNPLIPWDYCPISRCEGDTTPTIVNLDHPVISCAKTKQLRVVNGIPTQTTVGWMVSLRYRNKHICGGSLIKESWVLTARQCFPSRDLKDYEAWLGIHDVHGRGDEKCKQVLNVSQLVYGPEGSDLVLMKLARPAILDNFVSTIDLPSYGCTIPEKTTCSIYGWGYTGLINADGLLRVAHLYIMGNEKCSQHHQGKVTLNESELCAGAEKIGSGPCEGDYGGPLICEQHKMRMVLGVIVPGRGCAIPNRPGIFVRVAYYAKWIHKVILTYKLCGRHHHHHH
As to the kind of experiment: SPR, antibody immobilized, HGF protein injected, 25 C. The procedure: (§1) Analyses were performed at 25° C. using PBS (GIBCO, Catalog No. 14040-133) containing 0.05% surfactant P20 (BIAcore, Catalog No. R-1000-54), 2 mg/mL BSA (EMD, Catalog No. 2930) and 10 mg/mL CM-Dextran Sodium salt (Fluka, Catalog No. 86524) as running buffer. […] The resulting binding was determined as resonance units (RU) over baseline 30 seconds after the end of injection. […] Non-specific binding was monitored by comparing binding to a control surface.
Take B1: the binding result is given as “binds”.
Still for that read-out and setting: the value for B2 was “binds”.
Same read-out and setting: the value for B3 was “binds”; that for B4 was “binds”.

Another experiment concerns the target T3, recombinant mhm chimeric HGF protein containing the region I499-R556 of hHGF disposed between murine sequences (mouse-human-mouse chimera, UniProt Q08048 56-728).
T3 construct: also called mhm chimera (I499-R556)
T3 chain: T2 chain with Q443R, T445N, V446I, D499E, C502R, V505I, V508I, M523L
The experiment is described as above. As to the method:
as §1
In the case of B1, the binding result is listed as “binds”.
Same read-out and setting: the value for B2 was “binds”; that for B3 was “binds”.
In the case of B4, the binding result was “binds”.

The target of a further experiment is T4, recombinant mouse HGF (R&D Systems) (mouse, UniProt Q08048 33-728).
T4 construct: Bought protein, construct not described; also called rmHGF (R&D Systems); murine HGF
T4 sequence (Q08048 33-728 limits assumed): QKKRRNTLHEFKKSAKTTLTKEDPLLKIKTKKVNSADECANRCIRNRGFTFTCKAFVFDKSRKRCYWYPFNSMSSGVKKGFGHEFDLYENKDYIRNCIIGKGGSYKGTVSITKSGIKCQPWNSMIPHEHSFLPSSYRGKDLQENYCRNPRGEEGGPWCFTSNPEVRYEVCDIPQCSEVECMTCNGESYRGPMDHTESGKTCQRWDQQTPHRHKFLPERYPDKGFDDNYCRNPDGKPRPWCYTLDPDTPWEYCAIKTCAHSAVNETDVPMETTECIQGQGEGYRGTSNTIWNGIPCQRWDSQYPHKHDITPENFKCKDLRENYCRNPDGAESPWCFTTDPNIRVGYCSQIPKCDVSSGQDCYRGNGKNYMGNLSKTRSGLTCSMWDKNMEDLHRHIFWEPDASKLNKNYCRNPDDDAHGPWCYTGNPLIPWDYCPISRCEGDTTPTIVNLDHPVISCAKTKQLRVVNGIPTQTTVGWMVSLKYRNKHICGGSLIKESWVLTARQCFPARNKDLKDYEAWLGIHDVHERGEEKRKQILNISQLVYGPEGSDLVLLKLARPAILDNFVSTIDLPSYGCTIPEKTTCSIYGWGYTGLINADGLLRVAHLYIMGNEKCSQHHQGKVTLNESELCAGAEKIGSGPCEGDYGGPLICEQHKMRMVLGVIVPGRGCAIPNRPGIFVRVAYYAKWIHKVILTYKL
The description is as above. As to the method:
as §1
B1: the binding result is “no binding”.
As to B2, the binding result is given as “no binding”.
Same read-out and setting: the value for B3 was “no binding”; that for B4 was “no binding”.

The next experiment addresses T1, recombinant human HGF (R&D Systems, …). As to the kind of experiment: competition ELISA (DELFIA): antibody inhibits biotinylated c-Met binding to plate-coated HGF. As to the method:
The plates then were blocked with 200 μL of 5% non-fat dry milk in PBS for 1 hour at room temperature. […] 100 μL of sample per well was transferred to the assay plate and incubated for 2 hours at room temperature. The resulting plates were washed three times with PBS-0.1% Tween 20, and incubated for 1 hour at room temperature with Eu-labeled Streptavidin (Wallac, Catalog No. 1244-360) diluted 1:1000 in DELFIA assay buffer (Wallac, Catalog No. 4002-0010). The resulting plates were washed 3 times with DELFIA wash solution (Wallac, Catalog No. 4010-0010) and incubated with 100 μL/well DELFIA enhancement solution (Wallac #4001-0010) for 15 minutes at room temperature with agitation. The plates were read on Victor³V instrument (Perkin Elmer) using the Europium method. The IC₅₀ values were calculated using Prism.
As for B1, the IC50 worked out at 4.2 nM.
Same read-out and setting: the value for B2 was 6 nM; that for B3 was 5.9 nM.
Turning to B4, the IC50 turned out to be 5.7 nM.

The target is the same in a further experiment. As to the kind of experiment: cell-based or functional assay. This is another data set of the same source.
Consider B1, for which the “EC50, inhibition of HGF-stimulated c-Met phosphorylation in PC-3 cells, Average of Two Trials” value was 0.93 nM.
Same read-out and setting: for B2 the value was 0.8 nM; for B3, 0.79 nM; for B4, 0.88 nM.
